Assay [1] addresses T1, gC1qR/p32 at the cell surface (human, UniProt Q07021 74-282).
T1 construct: whole, on cells; also called cell surface p32
T1 sequence (looked up): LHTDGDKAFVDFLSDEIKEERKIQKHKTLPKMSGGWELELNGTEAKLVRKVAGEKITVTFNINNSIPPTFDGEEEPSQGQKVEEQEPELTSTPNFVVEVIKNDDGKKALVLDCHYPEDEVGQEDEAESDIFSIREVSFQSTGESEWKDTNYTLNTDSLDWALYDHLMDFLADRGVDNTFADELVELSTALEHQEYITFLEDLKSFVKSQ
Briefly: LyP-1 phage binding to Raji cells pre-incubated with 40 µg/ml mAb; ligand blocked: LyP-1 phage.

The target of assay [2] is T2, purified gC1qR/p32 protein (human, UniProt Q07021 74-282).
T2 construct: also called purified p32
T2 sequence (looked up): T1 sequence (looked up)
Briefly: LyP-1 phage binding to wells coated with purified gC1qR/p32 with 20 µg/ml mAb; ligand blocked: LyP-1 phage.

Assay [3] concerns the target T1, gC1qR/p32 at the cell surface. Briefly: FACS of 10 µM FITC-LyP-1 on MDA-MB-435 S35 cells with p32 siRNA or control siRNA. On the procedure: (§1) 48 hours after transfection, inhibition of p32 expression was checked by immunoblot analysis and immunostaining (upper panels). β-actin was used as a control. […] Cells incubated in the absence of peptide served as negative control. […] A representative experiment out of three is shown. C. […] Insertless phage was used to determine background phage binding.
(§2) MDA-MB-435 cells were transiently transfected with gC1qR/p32-specific or control siRNAs. […] The amount of fluorescence in living cells was analyzed by FACS. Cells incubated in the absence of peptide served as FITC negative control.

The target is the same in assay [4]. Briefly: FACS of FITC-peptide on MDA-MB-435 cells transfected with p32 siRNA or control siRNA. On the procedure: as §1, §2
Assay [5] concerns the target T3, neuropilin-1 by forced expression on M21 cells (Homo sapiens (Human), UniProt O14786 22-923). Briefly: cell-based or functional assay.
Assay [6] deals with T3, neuropilin-1 by forced expression on …. Briefly: CRGDK phage binding to M21 cells transfected with neuropilin-1 cDNA, against untransfected or vector-only cells.
For another assay, the target named is αv integrins. Briefly: assay not described in the filing.
Assay [7] deals with T4, gC1qR/p32 from tumor cell extracts (human, UniProt Q07021 74-282).
T4 construct: mature; From xenograft extracts an additional 75 kD band was also identified as gC1qR/p32; also called gC1q/p32 receptor; p32/p33/gC1qR/HABP1
T4 sequence (looked up): T1 sequence (looked up)
Briefly: pull-down from MDA-MB-435 extracts, anti-gC1qR/p32 immunoblot.

Assay [8] concerns the target T2, purified gC1qR/p32 protein. Briefly: phage binding to wells coated with purified gC1qR/p32, plaque assay.
Assay [9] addresses T1, gC1qR/p32 at the cell surface. Briefly: phage binding to C8161 cells transiently transfected with gC1qR/p32 cDNA. On the procedure:
as §1, with “A. C8161 cells were transiently transfected with pEGFP together with either empty pcDNA3.1 vector or p32 pcDNA3.1 vector. Transfected cells were sorted for EGFP expression and the sorted populations were used for phage binding assay and immunoblot analysis with anti-p32. […] 48” for “48”

Bridges are numbered along the chain shown (N, C = ends). Where no end group is shown, it is not given here.

T3 sequence (O14786 22-923 limits assumed, form in doubt): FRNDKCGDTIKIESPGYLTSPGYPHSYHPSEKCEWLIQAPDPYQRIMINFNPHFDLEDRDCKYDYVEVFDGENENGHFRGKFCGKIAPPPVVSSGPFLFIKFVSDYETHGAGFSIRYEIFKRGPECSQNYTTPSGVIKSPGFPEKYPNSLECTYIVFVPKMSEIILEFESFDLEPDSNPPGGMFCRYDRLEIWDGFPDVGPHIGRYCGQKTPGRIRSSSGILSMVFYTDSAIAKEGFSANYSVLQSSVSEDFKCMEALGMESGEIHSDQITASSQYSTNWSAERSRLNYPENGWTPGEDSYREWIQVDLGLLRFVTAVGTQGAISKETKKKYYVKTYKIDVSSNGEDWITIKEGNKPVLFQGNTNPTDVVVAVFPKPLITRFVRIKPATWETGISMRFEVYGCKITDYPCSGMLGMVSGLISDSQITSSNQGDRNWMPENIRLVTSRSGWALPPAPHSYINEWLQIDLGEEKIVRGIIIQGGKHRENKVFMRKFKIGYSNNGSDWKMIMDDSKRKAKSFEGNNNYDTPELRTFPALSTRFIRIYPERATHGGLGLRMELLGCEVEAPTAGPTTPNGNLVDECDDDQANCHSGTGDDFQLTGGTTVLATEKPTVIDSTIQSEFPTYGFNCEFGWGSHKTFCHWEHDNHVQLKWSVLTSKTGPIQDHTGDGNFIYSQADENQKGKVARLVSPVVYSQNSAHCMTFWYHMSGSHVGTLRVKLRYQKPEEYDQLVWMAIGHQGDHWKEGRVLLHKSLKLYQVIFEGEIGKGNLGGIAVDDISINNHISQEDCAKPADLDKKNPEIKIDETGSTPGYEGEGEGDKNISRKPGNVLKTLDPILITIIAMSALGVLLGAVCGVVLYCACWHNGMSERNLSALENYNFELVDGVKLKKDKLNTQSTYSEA

On to “mouse monoclonal 60.11 anti-gC1qR/p32 antibody”, for which the reduction of LyP-1 binding in [1] turned out to be 50%. Also, in [2], the reduction of LyP-1 phage binding is 90%.

B1: FITC conjugated LyP-1 peptide (peptide)
peptide: CGNKRTRGC
modifications: disulfide 1-9 (inferred); also: FITC conjugated, position not given here
notes: Used at 10 uM on cells at 4 C; also called FITC-LyP-1
Regarding B1, the binding result in [3] is given as “binds”.
On to ARALPSQRSR (also: FITC conjugated, position not given here) [FITC conjugated control peptide ARALPSQRSR], for which the binding result in assay [4] was “no binding (tested: 10 µM)”.
Regarding CRGDK (other, also: displayed on T7 phage capsid protein, not shown: T7 phage capsid protein) [CRGDK phage], in [5], the “internalization of CRGDK phage into M21 cells” value is 3.5 fold. Also, in assay [6], the “fold increase in binding upon forced expression of neuropilin-1” value came to 3.5 fold.
In the case of CRGDK [CRGDK fragment], the fold reduction in affinity (against iRGD) with αv integrins was 50 to 150 fold.

B2: biotinylated CRV peptide (peptide)
peptide: CRVRTRSGC
modifications: disulfide 1-9 (inferred); also: biotinylated, site not given here
notes: Negative control in the pull-down; also called control peptide
For B2, in assay [7], the binding result is on record as “no binding”.

B3: LyP-1 phage (other, not shown: large carriers)
chain: CGNKRTRGC
modifications: cysteine pairing not given here; also: displayed on phage coat protein
notes: Phage displaying the LyP-1 peptide; also called Lyp-1 expressing phage
Consider B3, for which the “fold binding over insertless control phage” value in assay [8] is 60 fold. Also, the “fold binding over control phage” value in assay [9] is 5 fold.

B4: biotinylated CREKA peptide (peptide)
peptide: CREKA
modifications: also: biotinylated, position not given here
notes: as for B2
As for B4, the binding result in assay [7] is reported as “no binding”.

The values above are taken from patent US20100172835A1 (BURNHAM INSTITUTE FOR MEDICAL RESEARCH, published 2010).
